Reference: PMC10907274
Values joined by “and” are separate entries in the source; they are usually repeats but may differ in a detail not shown here. Equal entries are not always repeated.

Target: Dark (wild type), auto-inhibited monomer (D. melanogaster) (UniProt Q7KLI1)
Experiment: cryo-EM structure

- stoichiometry N: 6 and 8
Substance: Dark (wild type), auto-inhibited monomer (from UniProt Q7KLI1 1-1440) (natural protein)
